{
  "source": "patent US20240117038A1",
  "key": {"[1]": {"target": "human CX3CR1 (human) (UniProt P49238)", "sequence (P49238 whole entry)": "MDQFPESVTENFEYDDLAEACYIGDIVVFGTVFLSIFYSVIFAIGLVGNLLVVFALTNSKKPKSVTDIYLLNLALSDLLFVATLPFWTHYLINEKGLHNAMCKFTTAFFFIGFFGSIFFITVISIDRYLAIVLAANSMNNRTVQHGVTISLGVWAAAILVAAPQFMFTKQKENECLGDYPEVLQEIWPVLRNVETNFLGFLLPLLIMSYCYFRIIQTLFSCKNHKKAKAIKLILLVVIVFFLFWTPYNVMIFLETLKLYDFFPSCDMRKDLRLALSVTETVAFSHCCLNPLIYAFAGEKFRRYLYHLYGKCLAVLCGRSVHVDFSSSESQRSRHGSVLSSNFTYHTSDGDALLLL", "assay": "cell-based or functional assay"}, "[2]": {"target": "mouse CX3CR1 (mouse) (UniProt Q9Z0D9)", "sequence (Q9Z0D9 whole entry)": "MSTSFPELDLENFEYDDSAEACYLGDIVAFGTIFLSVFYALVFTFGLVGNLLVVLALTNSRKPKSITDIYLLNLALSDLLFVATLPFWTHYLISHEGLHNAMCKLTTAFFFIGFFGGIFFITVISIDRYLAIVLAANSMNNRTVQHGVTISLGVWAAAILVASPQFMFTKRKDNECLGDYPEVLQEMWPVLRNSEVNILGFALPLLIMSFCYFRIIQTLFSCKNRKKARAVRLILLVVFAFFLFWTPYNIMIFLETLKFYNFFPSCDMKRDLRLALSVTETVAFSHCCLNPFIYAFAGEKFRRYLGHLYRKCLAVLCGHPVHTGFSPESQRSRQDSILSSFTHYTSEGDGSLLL", "assay": "cell-based or functional assay"}},
  "data": [
    {"substance": "mouse CX3CL1 (from UniProt O35188 25-337) (ligand)", "values": [
      {"measurement": "EC50, ERK phosphorylation in CHO K1 huCX3CR1 cells", "setting": "[1]", "value": 0.073, "unit": "µM"},
      {"measurement": "EC50, ERK phosphorylation in CHO K1 mCX3CR1 cells", "setting": "[2]", "value": 0.023, "unit": "µM"}
    ]}
  ]
}
